This note sets out measurements from the DeepSol protein solubility set.

A short description of this series: soluble on expression in E. coli; label from the status in PepcDB or PDB records.
Turning to “MAHHHHHHMTETTGARGRRTFMGRRRSQHEVQTEASFVPGCSSLEYAYDPLASEQYANLVELRQMIHSCLTLVAGDVYDVVSFKDILYHLESEMPSSLPVTDLLLLSSRLFRRTAELGRLLSCFFGVVFADDRNDEHFRFAEVRLLQREIRELKRQLSASEEERRRLKEMLDNVGQVAYDHGRAVELLETHNKVLKKQSTALEDQMALLFHQLNTGLEGHCKSAYQQVTGEMMVQESLNPARITFRQTMDSLSEQLRGSRGLITDVREVLLSCSQGRRTGEAYAAVEPTVRFKLKMLEANFQQLMGRFTAVKDTVVETAQELMNALQERKKILCLSFQHIRLYDLQNAKLRNARAILAQLQHNTSEVVRRIRVTFPSGNLTSVDRFGNIRTQRWHGGYTLATLRGYNLTEQQQQGEGEMSEVARSSTAVPSLTAGASRTLPGLTESQIMAAESEMAVIDGGVHSVTPVGLALSPGFRSMRASHSGVSPPPLRTSVPPSRGGSKLASARGSSSTTGMPAPVSAPTSVRSDDPDVLPFESVSTFVDLMHDIHDDMDELQSALVLDDEMAAFLKVLTLSASTTPRADALEIAGDPTGRAALLERQEYNMETALQPTGGRPGGTRGAPSSASVVSGNESITALEANSFSSLFSKMGTPSTSSEARGGARAENASSEAVMARQAVQLQRQQKQIAKMQEDFTSKVGFLRQVYEARIGDLEVRETTVSKRLGLVGGSAFQRGAGDGGSGRSSPGVRKGEDESPVSSSPGDKERLTKLRKEWRQSKRKLQPNRKLREATAEQLQLMQKDEKL”, the “soluble on expression in E. coli” value is “not soluble”.

For “MAHHHHHHMTMRRFGGALTRPLGGMRRVVVGPNGSVPEAGCVPTFETRRRKRLRLGGSLTGDWVASTESLSGSCVREEEARLLCFEKYGFVHKPLTMASWSDFLQELARFEFRWRLLPCVGGVTVLNIVERNCGDENVLCDLRTSCGSAPFAQFFECLGAFVQGTSEKRCIMFCDPNGLEQSLEIRAKRHLSPALGEGFEDEKPILPTLAQYDCRGTLVDLVLKDMKTDVLRPIISDISMQALNYAFLVSIPLFLRQADVGVRNTDLVSKEQMRHFRFAWCFLRRESMMTPVEIGELDTLLPP”, the “soluble on expression in E. coli” value is on record as “not soluble”.

For the sequence “MAHHHHHHMTTLYDELYLLFDEYIVRNCKQPNTYESLFCKKEFVQFAKLHGTSVVVTSPKKEIKNKDEIIDELIYAFKLFAKYTSMCDFFSKNEEVDDINTIYLKFLLIPYILGVLCYETISMEIRSDRLKEAKLYFGEFINVVNVYKIAPVEDYLLDEGGEVNQAMNRRNIKVKRAKDEKKLQDFYDDMIKMNVKKGSSQNYNHLCFADHMEEEQIREIYLSLIKCKCLQTLNMMDLIDTEIEVLEMRNRQQVQDKQHQNGKPTQGTKDTHDGQPPHQNKHPKDGIKKPWLFTIKKNMPLADMTQMRNYYRDLVFTPAHNLPTISLEECAKIEMEYALKGEGMAPRSEEERRGNPKSGTIKGAAQNGTDDEEDYEKSSKEESEKELMDREWDDWKDMHQKGIGNKNRNVA”, the “soluble on expression in E. coli” value is “not soluble”.

In the case of “MAHHHHHHMVDLLQRALANPFQDKLTFSPEDWDAHGLQPYQRCLREPFLRGCDTLVHKIRMQRIDFAKGILEQVVEDVQFRQKWGSLGEDYVTENAVQLTAYIFDSQERSLGGRRDPRKEDGAAQNIVYQPSTLSLGGDPALESLVTCVWFLRRDVLLLHQDFCYPVCEGRLTVFGRVQVALLRFYVRHAIKPRLLFLRQQHRGTLVVVELMMIGFAFCVERLMRPGLTCSGTVARRIRRVQGGTASSTSTGSGLVSGVHGEDSVAAASSGGGSAGGGGGGGGGGKLHCRPGRRRRWVVVM”, the “soluble on expression in E. coli” value was “not soluble”.

In the case of “MAHHHHHHMVFNQDHHEKECADAFVLARDGMSDFEGEKIERAFRGVTAALRFLDYQETTGTSTRSPTGSNSNAEQRSSGSHEPLVSGEDTNYHHVVCLVRSLDGEKENTPVN”, the “soluble on expression in E. coli” value is recorded as “not soluble”.

Take “MAHHHHHHMVKVKTISRSHLEWTKDRNGEVPRVNRNFDTKYNPMAKQTEFTRAIRAAKLDRMFAKPFVGALSGHHDTIQSVAVDYTSLSTVVSGAFDGGIIVWDVFTKRPKAIVDAHRHSVDGLVLSTDGVACFSASRDKVVKMWDLDFPSDDSKVEPLAEYLGEFPFSSIDHHFHKSIFVTSSDAVHLWDVNRTQPLQRFSWGDDTVSCCQFNKVETELVACCMSDRGVFIYDTRTKASHSKIIMEMCCTSVAWNPMDPNTFVTGSDDRNCYLFDMRVPGRPKSVFQGHINGITSVDFCPTGKKFVAGSLDATLRMWDIHQTTKSNSIEMYHTKRMAKVFSVKWSPDSSYIYSGSEDAILRVWKADASKPVRPLRGPERSSFNYMRSLKDRYSGFVEVRRIANQRNTPKAISRAQLRGKKAEKREFVKEASRRKHDDIKPLAQRKVYQSLN”: the “soluble on expression in E. coli” value is reported as “not soluble”.

Consider “MAHHHHHHMVNQTPHIVILSYDEEKINKFVSFLMSTFEPLESYEKAETYKLTFDRNDFHSGNGSSFAFKEVAKVAIVNKYYSAEVTISSCVVQSGENALRVEGSMPNGGLPDEANLPNGGLPDEANTPKMDLPDGAKPELQNQANELDAKDILCESVIFLFNNFTKKEKNIVNGNPFRSYDEECVEYIKDPESQQMIRNTHFDFSNLYKDVGIKIAIFPSSLEKDNKDIVNFFSDYFIECLYINYESAFLAEGGGQDDGHPSCPEEGDQNVKEEKTLLREFEEQEDDERLVEALHCHMWKGLQIKRDHLIIQHRGDFPMGEAFKGDEAARKGEKTPQKDEASPNGEKTPQKDEAAPNGENPPQRDAPATSGAAKIDLSGTLANSAKTPEGQKEELFMENFNKIVEKIRVAKMENKNCSNHAARRKKAEEIIFELQQYFCDIDGE”, for which the “soluble on expression in E. coli” value is on record as “not soluble”.

Regarding “MAHHHHHHMVSAPQIRSIPCGSGDFSVMKRSLIARWQSGVHTPHGVVYRGAKMKNWPEQRIPENFKFTEEQRFRTKAIPRDVGTIPRNFVLGVLYRHQPCEVGGLWEHCTNDPEIVLDSKRHLREVLKQAREEGFVTFERDAISNEWLCFLTRERYEEVQRIVTAKSEAVDAHSGLRGAAATETSTYAEKFREMNVEAKEAHARRLEEEVANTTRYLRRFQQREIDYLPYTDLNGKVNFMWWYETRDVQQRADEVLTDSSSSKALAGEEEHKAGSQLEATTASTS”, the “soluble on expression in E. coli” value is given as “soluble”.

In the case of “MAHHHHHHMVSMIVAGATGAIGRTVVQYAIQQPSIDRVVALTRFRNTAVSNYENLFGIIVAGEAGNTDSRGDGANSKRKKGSGSPAGTVTATPAEAAKIRPITMDWEEFTQLWVAKRSSTSAAASGADNCAAGAAATAITDPTERYRGIFGGHTYAAMCLGTTRKDAGSAKSFTRCDYDYVMAFTEAVLAYSAPAGLSPAKAFVHHIGDGGASKQVHVQEGMGKEVDVLAAMNANAAQSSGTLRVFCQVSSSNASSSSWFLYMQTKGIADESTVERVHRHNKCATAAAALSPVNLLLLQPGLLERHGKTRATEKFAKLIMSSIPVETCGAAIVSACKSLPIQHSVQRAETTSAAEQAKHDEVEGAQVEKENNTVAAGVRKTPLGKPYVATKALCKAGMPPNEPLPYIYAANNAVITDLASRLTA”, the “soluble on expression in E. coli” value is on record as “not soluble”.

Regarding “MAHHHHHHMVTGDMSTTVTGLDPHKMARRASRFVSSVKASTGTASSTGRTEMERYFENFASMDSAEGLETIGPKGIQHLCEDLAIKRDSFEMYTLIWKLGITRGGCIPRSDWLNMVYNYNIEVPVELKRRLREWVKDARGPSFVEFYSELYDYIRGDSARMMLPETAARAWDVLFRGDQQVAQWIRWYTGFYDCEVTRDIWRHVALFFNTGENATPYRKEDAWPTAFDLFAEWRETCETP”, the “soluble on expression in E. coli” value is given as “not soluble”.

For “MAHHHHHHMWGFEAYAEGLSATLNIHGAPLTGVAPQAGESAPLAPPRCLWKKNRNNYLFDAQGKLLSAAEAHSPTIWRTHHAFSGRCALVNPTAPATGGAAAQSFGAPGWAEQAWTAYQSWSVGFRLSSTTTDEPHILLSVAPAYFPNLVSATGEIRKADAATLASLPCAPSAEEEVIYNKRMLETPLIWEEPYALSVECTTHGVFLWSDHWGIFGRKIADRCLEVRQGEVRQSGIATLPSPGPSPSSAAADEELALVAYDAALRLRWSAAGPGSRSSTDGGSARAVAPTLSVELKTGGDAAAGGAAPTCEEKVGEELWQHLVDLPLSLDEVACKAAFRPYVTLMEGGDAVELL”, the “soluble on expression in E. coli” value is “not soluble”.

For the sequence “MAHHHHHHMWLNDFFAMELDGRAAMDANWGVLLAAFFRGPKKYIRDAGVLGEMQASDRYKMMERAVRDEMDMEEDVSRLYNNGMYELLRWLVATAEVTASAHEVTKSFLDAAAEEARNPTTTSAPRYLEGCYESVYNARWNHVVEVPGGEGTGLEVREGEPPQSWTYRAVGRTLEKDDGVQQFGATRPVLMVLTSDKGWPYSRNTIQDLPKDVFVNCEVDRVWQIVKGDLTAWFSTDGGTDFRPERRVLIGTPGIGKLVAAGSYLLYQLLHYDLEKIQVVVHCFGGGDAYVSDKTTRAATRYGDEDMCISELRSLRGHGRNVYIIYDVAKEGTPPPRHFAPTSGWGMIAVSFPKVTNYDEWAKQLQAARIIVNCPD”, the “soluble on expression in E. coli” value is “not soluble”.

In the case of “MAHHHHHHMYGGNNLRKFIPLVDIPLLGNKNNLLIFCGKVNFGSKKQKEKVDKETKKFRKFLKISNMKNNDEDEKYEGDINEGDMKKKMKGISGMTRIDYKIYDIKIQEINKNFENKIKKIFDTCLQIDFFNNISILKDKKNIKLCDVAQVVIKSSNLIYFYPYTINDIQKIIHNLKLKDNTWNPTVSNDGQYVILQIQPLSEDVKMKKKKEAKDLFEKIKNDIRNVRYKIRDDIIKNIEGDQWKIVERNKLDNYIKDKMKLIENVYEQSVKNY”, the “soluble on expression in E. coli” value is “not soluble”.

Take “MAHHHHHHMYGPSFSQTVLVAATPVVMKSPPTFFKGGNFRRISRRSTLKTTPERVPRNMYQFIVGSPSGELGHHSMDVMVSVQETVIDSGITQMCCSMLKNRRRRSLWRVTYVFGNSGDTLYNCRALSIDGLARRSMRPSPVPPDKLLSSAALIPFSVPRDFFIVFN”: the “soluble on expression in E. coli” value was “not soluble”.

As to “MAHHHHHHMYTRLTELFFISHTFRGRMSSTFCLQPSMMRPLLEQQRRFTSIISRFSSTVTSHVSSLADTHFMPLSEQCITEPRRPYPRRVSMQENLAERLTLQRSLRAHLVPLQVIVSKEKLYIELVWPSAALRAVENQKETMAHTVKGAAADGDDDGNDAALHHAMESPARTVSSGLSQRRPLEEHRTRFLAEFLRAYSPSTDVIGSDVLIYGRRGITITDVIPVGNYALRIVFSDGHSGGIYPYEYLFHLGCEKYSRMREYIRRLRAKHKSRDPPKRAPSQRLSRSRSAQRAEGRHMNSHGQDDQ”, the “soluble on expression in E. coli” value is “not soluble”.

Turning to “MAHHHHHHSLAPLISVLDLTPVSTGQQPGEALRHTLELAEVADSYQYTRFWIAEHHNSGAFVSAATEILIALAAARTGRIRVGSGGVMLPNHSPLKVAENFMSLEALFPGRIDLGLGRAPGTDGRTALALRRSREALAADDFPTQIALLRAFAGETPWPAGSVFDGVLAEPRGVKLPPLWILGSSLYGAQLAGELGVGYAFAYHFSQEDPAVAVQTYHRHFRPGPLAEPYAILGVNALAAPTEDEARDLSLTSAALSLGILSGQRGVLRSPEEARQWLQEMDTDPAKLLKKARIGTPEQVWASLQELGESTGAQEMLVTTYAHDPLKRQQSYRLLAQAAGMTPQKEEG”, the “soluble on expression in E. coli” value is listed as “soluble”.

In the case of “MAHHHHHHSLKTKIIVIVGPTAVGKTALAIEVAKRFNGEVVSGDSQQVYRGLDIGTAKASPEEQAAVPHHLIDVREITESYSAFDFVSEAKMTIEDIHSRGKLAIIAGGTGLYIQSLLEGYHLGGETPHEEILAYRASLEPYSDEELAHLVEQAGLEIPQFNRRRAMRALEIAHFGQDLENQEILYEPLIICLDDERSQLYERINHRVDLMFEAGLLDEAKWLFDHSPNVQAAKGIGYKELFPYFRGEQTFEEARESLKQATRRFAKRQLTWFRNRMQVTFYQIGESGVQDRILSQIEEFLDDEG”, the “soluble on expression in E. coli” value is reported as “not soluble”.
